Measurements taken from patent US11648277B2, “Combination therapy with gold controlled transgenes” (Chimera Bioengineering, Inc., priority 2019, dated 2023).

Experiments:
CD4+ T-cells = experiment: Luciferase-RDE bioluminescence in anti-CD19 CAR T-cells, resting vs Raji co-culture; assay type: cell-based; conditions: for increase in bioluminescence with CAR stimulation: Raji co-culture 24 h vs resting
Text: Combinations of these inserts/cassettes shown in FIG. 3 were placed in the similar lenti virus constructs. The anti-CD19 CAR cassette and the insert with the luciferase-RDE are transcribed in opposite directions, and the control regions for each are located in between the two insert/cassettes. The control region for the Luciferase-RDE insert and Luciferase-3′-UTR were either a MinP promoter or an NFAT promoter. The control region of the anti-CD19 CAR cassette was the MND promoter, and CD4+ T-cells were transduced with the bicistronic construct.
The transduced T cells were allowed to return to resting state, and then were tested after stimulation as follows. For the ‘no stimulation’ set, transduced T-cells were incubated for 24 h alone in medium. For the ‘Raji co-culture’ set CD19+ Raji B cells were incubated with the transduced T cells for 24 h. At 24 h, the T cells were stained for CD25 and CD69, which are activation markers, and subject to flow cytometry to measure these markers and luciferase expression in the T cells.

T-cells = experiment: Removal of microRNA binding sites from an RDE, expression from constructs; assay type: cell-based; conditions: MIR186 micro-RNA sites removed from the 3′-UTR of IL-2
Text: The AU-rich element from the 3′-UTR of IL-2 has mir-181 and mir 186 microRNA binding sites. Different combinations of the microRNA sites were removed from the 3′-UTR of IL-2. When the MIR186 micro-RNA sites were removed from the 3′-UTR of IL-2 the dynamic range of expression from constructs with this UTR increased 50 fold. The modified IL-2, 3′-UTR replaces CTT in the sequence with GAA and is shown below (the new GAA is underlined in the sequence):
Different combinations of the micro-RNA sites were removed from the 3′UTR of IFNg and tested for increased expression. When the mir125 micro-RNA sites were removed from the 3′-UTR of IFN-γ the expression rate from constructs with this UTR is increased.
Expression of GFP in T-cells, transfected with the RDE-GFP plus the microRNA sites, is compared to expression of GFP in T-cells with the RDE-GFP in which the microRNA sites have been removed, following activation with CD3/CD28 beads for 24 hours. The removal of the microRNA sites increased expression of the GFP by a factor of between 2-5 after 24 hours, relative to the cells with microRNA sites.

B1: RDE3: 3′-UTR of IL-2 modified to remove the mir186 sites (SEQ ID NO: 22) (nucleic acid, listed as Homo sapiens)
DNA: TAATTAAGTGCTTCCCACTTAAAACATATCAGGCCTTCTATTTATTTAAATATTTAAATTTTATATTTATTGTTGAATGTATGGTTTGCTACCTATTGTAACTATTATTCTTAATCTTAAAACTATAAATATGGATCTTTTATGATTGAATTTGTAAGCCCTAGGGGCTCTAAAATGGTTTCACTTATTTATCCCAAAATATTTATTATTATGTTGAATGTTAAATATAGTATCTATGTAGATTGGTTAGTAAAACTATTTAATAAATTTGATAAATATAAA
CD4+ T-cells; MinP promoter
  increase in bioluminescence with CAR stimulation: 1.4 fold
CD4+ T-cells; NFAT promoter
  increase in bioluminescence with CAR stimulation: 1.3 fold
CD4+ T-cells; with either promoter
  amount of bioluminescence, rank among RDE constructs: highest amount of bioluminescence
T-cells
  increase of dynamic range of expression: 50 fold
